B1: HDV Ribozyme (parent)
chain: GGCCGGCAUGGUCCCAGCCUCCUCGCUGGCGCCGGCUGGGCAACAUUCCGAGGGGACCGUCCCCUCGGUAAUGGCGAAUGGGACCCA

The data set covers variants of B1. Kind of data set: self-cleavage, relative activity (ratio to wild type); higher = more cleavage; co-transcriptional.
In the case of GGCCGGCAUGAUCCCAGCCUCCUCGCUGGCGCCGGCUGGGCAACAUUCCGAGGGGACCGUCCCCUCGGUAAUGGCGAAUGCGACCCA, the self-cleavage amounted to 0.0396.
The figure for GGCCGGCAUGGUCCCAGCCUCGUCGCUGGCGCCGGCUGGGCAACAUUCCGAGGGGACCGUCCCCUCAGUAAUGGCGAAUGGGACCCA is 0.0898; for GGCCGGCAUGGUCCCAGCCUCCUCGCUGGCGCCGGCUGGGCAACAUUCCCAGGGCACCGUCCCCUCGGUAAUGGCGAAUGGGACCCA it is 1.14; for GGCCGGCAUGGUCCCAGCCUCCUCGCUGGCGCCAGCUGGGCAAGAUUCCGAGGGGACCGUCCCCUCGGUAAUGGCGAAUGGGACCCA it is 0.134.
In the case of GGCCGGCAUGGUCCCAGCCUCCUCGCUGGCGCCGGCGGGGCAACAUUCCGAGGGGACCGUCGCCUCGGUAAUGGCGAAUGGGACCCA it was 0.0791; in that of GGCCGGCAUGGUCCCAGCUUCCUCGCCGGCGCCGGCUGGGCAACAUUCCGAGGGGACCGUCCCCUCGGUAAUGGCGAAUGGGACCCA, 0.135.
With GGCCGGCAUGGUCCCAGCCUCCUCGCUGGCGCCGGCUGGGCAACAUUCCGAGGGGACCGUCCCCUCGGUAAUUGCGAAUGGGACCCC, the self-cleavage was 0.385.
Consider GGCCGCCAUGGUCCCAGCCUCCUCGCUGGCGCCGGCUGGGCAACAUUUCGAGGGGACCGUCCCCUCGGUAAUGGCGAAUGGGACCCA, for which the self-cleavage turned out to be 0.277.
The figure for GGCCGGCAUGGCCCCAACCUCCUCGCUGGCGCCGGCUGGGCAACAUUCCGAGGGGACCGUCCCCUCGGUAAUGGCGAAUGGGACCCA is 0.312; for GGCCGGCAUGGUCCCAGCCUCCUCGCUGGCGCCGUCUGGGCAACAUUCCGAGGGGACCGUCCCCUCGGUAAUGGCGAAUGGGACCCC it is 0.432.
In the case of GGCCGGCAUGGUCCCAGCCUCCUCGCUGGCGCCGGCUGGGCAACAUUCCGAGGGGACCGUCCCCGCGGUAAUGGCGAAUGGUACCCA, the self-cleavage is 0.453.
On to GGCCGGCAUGGUCCCAGCCUCCUCGCUGGCGCCGGCUGGCCAACAUUCCGAGGGGACCGUCCCCUCGGUAAUGGCGCAUGGGACCCA, for which the self-cleavage came out at 0.151.
The figure for GGCCGGCAUGGUCCCAGCCUCCUCGCUGGCGCCGGCUGGGCAACAUUCCGCGGGGACCGACCCCUCGGUAAUGGCGAAUGGGACCCA is 1.11; for GGCCGGGAUGGUCCCAGCCUCCUCGCUGGCGCCGGCUGGGCAACAUUCCGAGGGGACCGUCCCCUCGGUCAUGGCGAAUGGGACCCA it is 0.237.
The figure for GGCCGGCAUGGUCCCAGCCUCCUCGCUGGCGCCGGCUGGGCAACAUUCCGAGGGGGCCGUCCCCUCGGUAAUGGCUAAUGGGACCCA is 1.22; for GGCCGGCAUGGUCCCAGCCUCCUCGCUGGCGCCGGCUGGGCAGCAUUCCGAGGGGACCGUCCCCUCGGUAAUGGCGAAUGGGACUCA it is 0.446; for GGCGGGCAUGGUCCCAGCCUCCUCGCUGGCGCCGGCUGGGCAACAUUCCGAGGGGACCUUCCCCUCGGUAAUGGCGAAUGGGACCCA it is 0.475.
For GGCCGGCAUGGUCCCAGCCUCCUCGCUGGCGCCGGCUGGGCAACAUUCCGAGGGUACCGUCCCCUCGGUAAUGGCGAAUGGGAACCA, the self-cleavage is 0.886.
With GGCCGGCAUGGUCCCAGCCUCCUCGCUGGCGCCGGCUGGGCAACACUGCGAGGGGACCGUCCCCUCGGUAAUGGCGAAUGGGACCCA, the self-cleavage worked out at 1.18.
The figure for GGCCGGCAUGGUCCCAGCCUCCUCGCUGGCGCCUGCUGGGCAACAUUCCGAGGGGACCAUCCCCUCGGUAAUGGCGAAUGGGACCCA is 0.203.
As for GGCCGGCAUGGUCCCAGCCUCCUCGCUGGCGCCGGCUGGGCAACAUUCCGAGGGGACCGUCCCCUCGGGAAUGGCCAAUGGGACCCA, the self-cleavage came to 0.77.
Consider GGCCGGCAUGAUCCCAGCCUCCUCGCUGCCGCCGGCUGGGCAACAUUCCGAGGGGACCGUCCCCUCGGUAAUGGCGAAUGGGACCCA, for which the self-cleavage amounted to 0.123.
Take GGCCGGCAUGGUCCCAGCCUCCUCGCUGACGCCGGCUGGGCAACAUUCCGAGGGGACCCUCCCCUCGGUAAUGGCGAAUGGGACCCA: the self-cleavage was 0.123.
The figure for GGCCGGCAUGGUACCAGCCUCCUCGCUGGCGCCGUCUGGGCAACAUUCCGAGGGGACCGUCCCCUCGGUAAUGGCGAAUGGGACCCA is 0.125; for GGCCGGCAUGGUCCCAGCCACCUCGCAGGCGCCGGCUGGGCAACAUUCCGAGGGGACCGUCCCCUCGGUAAUGGCGAAUGGGACCCA it is 0.0723; for UGCCGGCCUGGUCCCAGCCUCCUCGCUGGCGCCGGCUGGGCAACAUUCCGAGGGGACCGUCCCCUCGGUAAUGGCGAAUGGGACCCA it is 0.415.
For GGCCGGCAUGGUCCCAGCCUCCGCGCUGGCGCCGGCUGGGCAACAUUCCGAGGGGACCGUCCCCCCGGUAAUGGCGAAUGGGACCCA, the self-cleavage is 0.864.
The figure for GGCCGGCAUGGUCCCAGUCCCCUCGCUGGCGCCGGCUGGGCAACAUUCCGAGGGGACCGUCCCCUCGGUAAUGGCGAAUGGGACCCA is 0.0923.
In the case of GGCCGGCAUGGUCCCAGCCUCCUCGCUGGCGCCGGGUGGGCAACAUUCCGAGGCGACCGUCCCCUCGGUAAUGGCGAAUGGGACCCA it was 0.243; in that of GGCAGGCAUGGUCCCAGCCUCCUCGCUGGCGCCGGCUGGGCAACAUUCCGAGGGGACCGUCCCCUCGGAAAUGGCGAAUGGGACCCA, 0.185; in that of GGCCGGCAUGGUCCCAGCCUCCUCGCUGGCGCCGGCUGUGCAACAUUCCGAGGGCACCGUCCCCUCGGUAAUGGCGAAUGGGACCCA, 0.698.
In the case of GGCCGGCAUGGUCCCAGCCUCCUCGCUGGCGCCGGCUGGGCAACAUUCCGAGGGGACCGUCCCGUCGGGAAUGGCGAAUGGGACCCA it was 0.91; in that of GGCCGGCAUGGUCCCAGCCUCCUCGCUGUCGCCGUCUGGGCAACAUUCCGAGGGGACCGUCCCCUCGGUAAUGGCGAAUGGGACCCA, 0.058.
For the variant GGCCGGCAUGGUCCCAGCCUCCUCGCUGGCGCCGGCUGGGCAGCAUUCCGAGGGGACCGUCCCCUCGGCAAUGGCGAAUGGGACCCA, the self-cleavage worked out at 0.302.
The figure for GGCCGGCAUGGGCCCAGCCUCCUCGCUGGCGCCGGCUGGGCAACAUUCCGAGGGGACCGUCGCCUCGGUAAUGGCGAAUGGGACCCA is 0.437.
In the case of GGCCGGCAUGGUCCCAGCCUCCUCACUUGCGCCGGCUGGGCAACAUUCCGAGGGGACCGUCCCCUCGGUAAUGGCGAAUGGGACCCA, the self-cleavage was 0.0185.
For the variant GGCCGGCAUGGUCCCAGCCUCCUCGCUGGCGCCGGCUGGGCAACAUUCCGUGGGGACCGUCCCCUCGGUAACGGCGAAUGGGACCCA, the self-cleavage was found to be 0.608.
In the case of GGCCGGCAUGGUCCCAGCCUCCUCGCUGGCGCCGGUAGGGCAACAUUCCGAGGGGACCGUCCCCUCGGUAAUGGCGAAUGGGACCCA it was 0.0978; in that of GGCCGGAAUGGUCCCAGCCUCCUCGCUGGCGCCGGCUGGGCAACAUUCCGAGGGGACAGUCCCCUCGGUAAUGGCGAAUGGGACCCA, 0.772; in that of GGCCGGCAUGGUCCCAGCCUCCUCGCUGGCGCCGGCUGGGCAACAUUCCGAGGGGACGGUCCCCACGGUAAUGGCGAAUGGGACCCA, 0.944.
In the case of GGCCGGCAUGGUCCCAGCCUCCUCGCUGGCGCCGGCUGGGCAACAUUCCUAGGGGACCGUCCCCUCGGUAAUGGCGAAUGGGACCGA it was 0.811; in that of GGCCGGCAUGGUCCCAGCCUCCUCGCUGGCGCCGGCUGGGCAACAUUCCGAUGGGACCGUCCCCUCGGUAAUGGUGAAUGGGACCCA, 0.115; in that of GGCCGGCAUGGUCCCAGCCUCCUCGCUGGCGGCGGCUGGGCAACAUUCCGAGGGGACCGUCCCCUCGGUCAUGGCGAAUGGGACCCA, 0.38.
In the case of GGCCGGCAUGGUCCCAGCCUCCUCGCUGGCGCCGGCUGGGCUACAUUCCGAGGGGACCGUCCCCUCGGGAAUGGCGAAUGGGACCCA, the self-cleavage was 0.519.
The figure for GGCCGGCAUGGUCCCAGCCUCCUCGCUGGCGCCGGCUGGGCAACAUUCCGAGGGGACCGUCCCCUCUGUAAUGGCGAAUGAGACCCA is 0.254; for GGCCGGCAUGGUCCGAGCCUCCUCGCUGGCGCCGGCCGGGCAACAUUCCGAGGGGACCGUCCCCUCGGUAAUGGCGAAUGGGACCCA it is 0.875; for GGCCGGCAUGGUCCCAGCCUCCUCGCUGGCGCCGGGUGGGCAACAUUCCGAGGGGACCGUCCCCUCGGUGAUGGCGAAUGGGACCCA it is 0.147.
GGCCGGCAUGGUCCCAGCCUCCUCGCUGGCGCAGUCUGGGCAACAUUCCGAGGGGACCGUCCCCUCGGUAAUGGCGAAUGGGACCCA: the self-cleavage was found to be 0.137.
Turning to GGGCGGCAUGGUCCCAGCCUCCUCGCUGGCGCCGGCUGGGCAACAUUCCGAGGGGACCGUCCCCUCGGUAAUGGCGAAUGCGACCCA, the self-cleavage is 0.0831.
As for GGCCGGCAUGGUCCCAGCCUCCUCGCUGGCGCCGGCUGGGCAACAUGCCGAGGGGAACGUCCCCUCGGUAAUGGCGAAUGGGACCCA, the self-cleavage was found to be 1.22.
In the case of GGCCGGCAUGGUCCCAGCCUCCUCGGUGGCGCCGGCUGGGCAACAUUCCGAGGGGACCGUCCCCUCGGUAAAGGCGAAUGGGACCCA it was 0.615.
As to GGCCGGCAUGGUCCCAGUCUCCUCGCUGGCGCCGGCUGGGCAACAUUCCCAGGGGACCGUCCCCUCGGUAAUGGCGAAUGGGACCCA, the self-cleavage was 0.705.
Turning to GGCCGGCAUGGUCCCCGCCUCCUCGCUGGCGCCGGCCGGGCAACAUUCCGAGGGGACCGUCCCCUCGGUAAUGGCGAAUGGGACCCA, the self-cleavage is 0.831.
In the case of GGCCGGCAUGGUCCCAGCCUACUCGCUGGCGCGGGCUGGGCAACAUUCCGAGGGGACCGUCCCCUCGGUAAUGGCGAAUGGGACCCA it was 0.0554; in that of GGCCGGCAUGAUCCCAGCCUCCUCGCAGGCGCCGGCUGGGCAACAUUCCGAGGGGACCGUCCCCUCGGUAAUGGCGAAUGGGACCCA, 0.815.
The figure for CGCCGGCAUGGUCCCAGCCUCCUCGCUGGCGCCGGCUGGGCAACAUUCCGAGGGGGCCGUCCCCUCGGUAAUGGCGAAUGGGACCCA is 0.356; for GGCCGGCAUGGUCCGAGCGUCCUCGCUGGCGCCGGCUGGGCAACAUUCCGAGGGGACCGUCCCCUCGGUAAUGGCGAAUGGGACCCA it is 0.
As to GGCCGGCAUGGUCCCAGCCUCCUCGCUGGCGCCGGCUGGGCUACAUUCCGCGGGGACCGUCCCCUCGGUAAUGGCGAAUGGGACCCA, the self-cleavage was determined as 0.665.
Take GGCCGGCAUGGUCCCAGCCUCCUCGGUGGCGCCGGCUGGGCAACAUUCCGAGGGGACCGUCCCCUAGGUAAUGGCGAAUGGGACCCA: the self-cleavage was determined as 1.05.
In the case of GGCCGGCAUGGUCCCAGCCUCCUCGCUGGCGCCGGCCGGGCAACAUUCCGAGGGGACCGUCCCCUCGGUAAUGACGAAUGGGACCCA it was 0.196.
Turning to GGCCGGCAUGGUCCGAGCCUCCUCGCUGGCGCCGGCUGGGCAACAUUCCGAGGGGACCGUCCGCUCGGUAAUGGCGAAUGGGACCCA, the self-cleavage amounted to 0.475.
In the case of GGCCGGCAUGGUCCCAGCCUCCUCGCUGGCGCCGGCUGGGCAAAAUUCCGAGGGGACAGUCCCCUCGGUAAUGGCGAAUGGGACCCA it was 1.01; in that of GGCCGGCAUGGUCCCAGCCUCCUCGCUGGCGCCGGCUGGGCAACAUUCCGCGGGGACCGUCCCCUCGGUAAUGGCGAAUGGGCCCCA, 0.571.
The figure for GGCCGGCAUGGUCCCAGCCACCUCGCUGGCGCCCGCUGGGCAACAUUCCGAGGGGACCGUCCCCUCGGUAAUGGCGAAUGGGACCCA is 0.199.

Values taken from the RNAGym collection of RNA variant scans (doi:10.7554/elife.80360).
